Results as given in patent publication US20240117005A1 (COUNCIL OF THE QUEENSLAND INSTITUTE OF MEDICAL RESEARCH, published 2024).
One block for each binder: values may come before it. Starred links: 1 amine or outer side, 2 acyl side, 3 side chain; linkers in the order of their positions; H or OH if unused. Positions of bridges follow the written chain, without caps; N, C: chain ends. No end group written: not given here. *: point of attachment. TBMB = c1c(C[*:1])cc(C[*:3])cc1C[*:2]; Myristyl = CCCCCCCCCCCCCC*

Columns and labels:
[1] = target: T1, importin-α1 (IMPα1) (human, UniProt P52292 2-529); experiment: DUOLINK proximity ligation in permeabilised MDA-MB-231 cells; loss of the PDL1:IMPα1 complex, DL-2-NP 10 to 0.3 nM
[2] = target: T1, importin-α1 (IMPα1); experiment: DUOLINK proximity ligation; IC50 of DL-2-NP against IC50 of naked DL-2 for the PDL1:IMPα1 complex
[3] = target: T1, importin-α1 (IMPα1); experiment: DUOLINK proximity ligation in permeabilised MDA-MB-231 cells; loss of the PDL1-Ac:IMPα1 complex, DL-2 10 to 0.00975 µM

IC50 [1]: 1 nM
fold more potent than DL-2 [2]: ~39 fold
B1: DL-2 nanoparticle (DL-2 bicyclic peptide encapsulated in a lipid nanoparticle) (peptide)
peptide: ACLTFIFCRLRKGRCMMDVKK
modifications: N-terminal myristyl; cysteines covalently bound to the TBMB scaffold (bicyclic); peptide packaged in a POPC / cholesterol / DSPE-PEG lipid nanoparticle
notes: Same peptide as DL-2, in a different formulation; also called DL-2-NP

IC50 [3]: 39 nM
Binder: Myristyl-ACLTFIFCRLRKGRCMMDVKK (linker 2-8-15 via TBMB, also called DL-2-TBMB; DL-2-Batch 1) [DL-2 bicyclic peptide (Myristyl-ACLTFIFCRLRKGRCMMDVKK on TBMB scaffold)]
